For one protein, Km results are on record in PMC5902328.

Substrate in this series: N
The series can be described thus: purified protein. Particulars: aminating direction, co-substrate Fru6P, saturating, no GlcNAc6P activator, 37 °C.

B1: Amuc-NagB (Akkermansia muciniphila ATCC BAA-835) (protein)
chain: MIGVESSRVMRAAPRKAVGRVEASVPWDFSRKYAAVHHSGTISVENARKRSKIGRVMKVETFETPQDAAKALAGEVAELIRTRAAEGKNVVLGLATGATPLPFYAELVRMHKEEGLSFANVISFNLDEYSGLDRDHPESYWYFMHTNLFNHIDIKPENINLPSGTVKDDEIAAHCAAYEQKIKDCGGIDLQILGIGRTGHIGFNEPGSDDTTVTRQVHLDELTRSDAAPAFGGIENVPTTAITMGVATIMGAREVALMAWGEKKASIVKKAVQGPVTVDVAASYLQKHPNAKFLLDKGAASLL
As to B1, the Km is listed as 41.3 ± 12.8 mM.
